In patent US7378397B2 (The Provost, Fellows and Scholars of the College of the …, priority 2000, dated 2008):

Columns and labels:
Type in all cases: biochemical, porcine
TRH-DE [1] = target: T1, TRH-DE (Sus scrofa, UniProt A0A287AP33); test: HPLC assay of peptide hydrolysis by TRH-DE (Glp production)
T1 construct: The inventor purified TRH-DE from porcine brain according to purification procedures previously published by Dr. K. Bauer; from tissue; host or cells: porcine brain (TRH-DE); bovine kidney (DPP-IV, gift from Dr. C. H. Williams)
Summary of the method: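 Porcine brain TRH-DE incubated with 1 mM peptide in 20 mM potassium phosphate, pH 7.5, 37 °C: screen with 0.8 μg enzyme for 18 h; rate microassays with 0.8-3.2 μg enzyme for 5 min to 18 h, in triplicate. Reactions stopped with TFA; Glp quantified by C-18 reverse-phase HPLC, UV 206 nm.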

TRH-DE [2] = target: T1, TRH-DE; test: discontinuous fluorometric TRH-DE assay with TRHAMC as substrate; details: measured indirectly, peptide treated as competitive inhibitor of TRHAMC hydrolysis; non-linear regression; mean±S.D.
Procedure: (§1) The inventor purified TRH-DE from porcine brain according to purification procedures previously published by Dr. K. Bauer, (Max-Planck-Institut, Hannover, Germany) (1). TRH-DE was purified almost 20,000 fold. […] Dipeptidyl peptidase IV (DPP-IV) (EC 3.4.14.5), purified from bovine kidney (7.7 mg ml^−1, specific activity of 17.5 U mg^−1 with Gly-ProAMC as substrate), was obtained as a gilt from Dr. C. H. Williams (Queen's University Belfast, U.K). (DPP-IV was used as the coupling enzyme used in the fluorometric assays).
(§2) One unit (U) of enzyme activity was defined as that amount catalysing the formation of one μmol of product in one minute under the standard conditions employed. […]
(§3) Determination of inhibitor constants for selected TRH-DE substrates—The HPLC assay lacked sufficient sensitivity for determining kinetic constants. […] This assay employs TRHAMC as the substrate and depends on the measurement of the fluorescence of 7-amino-4 methyl coumarin (AMC) produced as follows:
We have shown that the amount of AMC formed under these conditions is a quantitative measure of TRHAMC cleavage (23). Initial rates for the hydrolysis of TRHAMC by TRH-DE were determined in triplicate at five different substrate concentrations both in the absence and presence of at least three concentrations of peptide. […]

[3] = substrate: Cc1cc(=O)oc2cc(NC(=O)[C@@H]3CCCN3C(=O)[C@H](Cc3c[nH]cn3)NC(=O)[C@@H]3CCC(=O)N3)ccc12; test: as above; details: other: Michaelis constant of TRHAMC measured directly, discontinuous assay; pH 7.5; 37.0 °C
Procedure: as §1
(§4) One unit (U) of enzyme activity was defined as that amount catalysing the formation of one μmol of product in one minute under the standard conditions employed. All incubations in the assays described below were carried out in 20 mM potassium phosphate buffer, pH 7.5, at 37° C.
as §3
(§5) We have shown that the amount of AMC formed under these conditions is a quantitative measure of TRHAMC cleavage (23). Initial rates for the hydrolysis of TRHAMC by TRH-DE were determined in triplicate at five different substrate concentrations both in the absence and presence of at least three concentrations of peptide. Ki values were obtained by non-linear regression analysis of the data collected. Determined in this way (i.e. by treating the peptide substrates as inhibitors of TRHAMC hydrolysis), these Ki values correspond to the Michaelis constants for those library peptides hydrolysed by TRH-DE (32).

[4] = substrate: NC(=O)[C@@H]1CCCN1C(=O)[C@H](Cc1ccc(O)cc1)NC(=O)[C@@H]1CCC(=O)N1; test: as above; details: other: measured indirectly, peptide treated as competitive inhibitor of TRHAMC hydrolysis; non-linear regression; mean±S.D.; pH 7.5; 37.0 °C
Procedure: as §1, §4, §3, §5

[5] = substrate: NC(=O)[C@@H]1CCCN1C(=O)[C@H](Cc1ccccc1)NC(=O)[C@@H]1CCC(=O)N1; test: as above; details: other: measured indirectly, peptide treated as competitive inhibitor of TRHAMC hydrolysis; non-linear regression; mean±S.D.; pH 7.5; 37.0 °C
Procedure: as §1, §4, §3, §5

[6] = substrate: Cc1cc(=O)oc2cc(NC(=O)[C@@H]3CCCN3C(=O)[C@H](Cc3c[nH]cn3)NC(=O)[C@@H]3CCC(=O)N3)ccc12; test: continuous coupled fluorometric TRH-DE assay (TRHAMC substrate, DPP-IV coupling enzyme); details: other: Michaelis constant of TRHAMC, non-linear regression, pH 7.5, 37.0 °C
Procedure: as §1, §2
The reaction was monitored continuously by measuring the increase in AMC fluorescence. A linear progress curve with no discernible lag period was observed when the reaction was monitored over a period of 10 minutes. […]
In a preliminary experiment, the peptides were screened for their ability to inhibit TRH-DE activity. The initial rate of TRHAMC hydrolysis by TRH-DE was measured by incubating 5 μM TRHAMC with 1.23 μg DPP-IV and 0.32 μg TRH-DE, both in the absence and presence of each library peptide (1 mM final concentration) under standard assay conditions (23). […]
Fluorescence measurements were made using a Perkin Elmer LS 50B Luminescence Spectrometer fitted with a thernostated cell holder. […]

In the case of Glp-Thi-ProNH2, the Vmax (TRH-DE [1]; estimated from HPLC rates of hydrolysis using Vmax=vo{(Km+[S])/[S]}) is reported as 2.19 ± 0.16 (6) U mg^−1, the Rate of hydrolysis (TRH-DE [1]; peptide 1 mM, 37° C., Glp production by HPLC, mean±S.D.) is reported as 2.12 ± 0.16 (6) U mg^−1 and the Km (TRH-DE [2]) is reported as 34 ± 6 µM.

B1: TRH-DE (Sus scrofa) (protein)
chain: MALDGERGEQEEEKKKKKKKKKRKKKKEEEGAKKSSSPFVATMGENDAALRAGGRGLSDPWADSVGVRPRTTERHITVHKRLVLAFAVSIVALLAVTMLAVLLSLRFDECGASIPPGADGGPAGFPARGGNESLPGSSRRDHHAGGDSSQPGAGREDTPETPSAQPPSEEEQEQWQPWTQLRLSGHLKPLHYNLMLTAFMENFTFSGEVNVEIACRNATRYVVLHASRVAVEKVQVAEDRVAGAVPVAGFFLYPQTQVLVVVLNRTLDAQRNYNLKIIYNALIENELLGFFRSSYVLHGERRFLGVTQFSPTHARKAFPCFDEPIYKATFKISIKHQATYLSLSNMPVETSVFEEDGWVTDHFSQTPLMSTYYLAWAICNFTYRETTTKSGVVVRLYARPDAIRRGSGDYALHITKRLIEFYEDYFKVPYSLPKLDLLAVPKHPYAAMENWGLSIFVEQRILLDPSVSSISYLLDVTMVIVHEICHQWFGDLVTPVWWEDVWLKEGFAHYFEFVGTDYLYPGWNMEKQRFLTDVLHEVMLLDGLASSHPVSQEVLRATDIDRVFDWIAYKKGAALIRMLANFMGHSVFQRGLQDYLTIHKYGNAARNDLWNTLSEALKRNGKYVNIQEVMDQWTLQMGYPVITIFGNTTAENRIIITQQHFIYDISAKAKPHELQNSSYLWQIPLTIVVGNRSHVSSEAIIWVSNKTEHHRITSLNKGSWLLGNINQTGYFRVNYDLRNWRLLIDQLIRNHEVLSVSNRAGLIDDAFSLARAGYLPQNIPLEIIRYLSEEKDFLPWHAASRALYPLDKLLDRMEKYNVFNEYILKQVATTYIKLGWPKNNFNGSLVQASYQHEELRREVIMLACSFGNKHCHQQASTLISDWISSNRNRIPLNVRDIVYCTGVSLLDEDVWEFIWMKFHSTTAISEKKILLEALTCSDDRNLLNRLLNLSLNSEVVLDQDAIDVIIHVARNPHGRDLAWKFFRDKWKILNTRYGEALFMNSKLISGVTEFLNTEGELKELKNFMKSYDGVAAASFSRAVETVEANVRWKMLYQDELFQWLGKALRH
notes: The inventor purified TRH-DE from porcine brain according to purification procedures previously published by Dr. K. Bauer; from tissue; host or cells: porcine brain (TRH-DE); bovine kidney (DPP-IV, gift from Dr. C. H. Williams)
Molecule B1 has a Km [3] of 3.1 ± 0.5 µM, a Vmax [3] of 0.11 µmol/min/mg and a Vmax/Km [3] of 40000 µL/min/mg. The Km [4] was 15 ± 3 (4) μM, the Vmax [4] was 0.67 µmol/min/mg and the Vmax/Km [4] was 50000 µL/min/mg. For the same molecule, the Km [5] was 55 ± 8 (3) μM, the Vmax [5] was 1.64 µmol/min/mg and the Vmax/Km [5] was 30000 µL/min/mg. For the same molecule, the Km [6] was 3.5 ± 0.4 µM.
